From article PMC4974663, “The ATPase hCINAP regulates 18S rRNA processing and is essential for embryogenesis and tumour growth” (Nature Communications, 2016)

Target: T1, GST-RPS14 (UniProt P62263 1-151)
T1 construct: ribosomal protein RPS14; also called recombinant GST-RPS14
Experiment: pull-down; GST-RPS14 and His-hCINAP incubated in 1 ml NP-40 lysis buffer (50 mM Tris pH 8.0, 150 mM NaCl, 1% NP-40) for 2 h at 4 °C, then ATP or AMP-PNP at 1 mM with 5 mM MgCl2 for 1 h; GST beads 1 h; western blot
Details: both partners purified

binding result: binds
B1: His-hCINAP (enzyme)
chain: MLLPNILLTGTPGVGKTTLGKELASKSGLKYINVGDLAREEQLYDGYDEEYDCPILDEDRVVDELDNQMREGGVIVDYHGCDFFPERWFHIVFVLRTDTNVLYERLETRGYNEKKLTDNIQCEIFQVLYEEATASYKEEIVHQLPSNKPEELENNVDQILKWIEQWIKDHNS
notes: also called His6-hCINAP
